For assay [1], the target named is heteromeric CNGA1/CNGB1 channels (UniProt Q00194). The experiment in a line: patch-clamp fluorometry. (In general: In patch-clamp work, channel activity is measured electrically.)
The target of another assay is eCFP-CNGB1 (UniProt Q28181). The experiment in a line: FRET or BRET. (BRET reads energy transfer from a luciferase to a nearby fluorophore.)
A further assay has as its target CNGA1-eYFP (UniProt Q00194). The experiment in a line: FRET or BRET.

Sequence of heteromeric CNGA1/CNGB1 channels (Q00194 whole entry K2E, chain 1 of 2): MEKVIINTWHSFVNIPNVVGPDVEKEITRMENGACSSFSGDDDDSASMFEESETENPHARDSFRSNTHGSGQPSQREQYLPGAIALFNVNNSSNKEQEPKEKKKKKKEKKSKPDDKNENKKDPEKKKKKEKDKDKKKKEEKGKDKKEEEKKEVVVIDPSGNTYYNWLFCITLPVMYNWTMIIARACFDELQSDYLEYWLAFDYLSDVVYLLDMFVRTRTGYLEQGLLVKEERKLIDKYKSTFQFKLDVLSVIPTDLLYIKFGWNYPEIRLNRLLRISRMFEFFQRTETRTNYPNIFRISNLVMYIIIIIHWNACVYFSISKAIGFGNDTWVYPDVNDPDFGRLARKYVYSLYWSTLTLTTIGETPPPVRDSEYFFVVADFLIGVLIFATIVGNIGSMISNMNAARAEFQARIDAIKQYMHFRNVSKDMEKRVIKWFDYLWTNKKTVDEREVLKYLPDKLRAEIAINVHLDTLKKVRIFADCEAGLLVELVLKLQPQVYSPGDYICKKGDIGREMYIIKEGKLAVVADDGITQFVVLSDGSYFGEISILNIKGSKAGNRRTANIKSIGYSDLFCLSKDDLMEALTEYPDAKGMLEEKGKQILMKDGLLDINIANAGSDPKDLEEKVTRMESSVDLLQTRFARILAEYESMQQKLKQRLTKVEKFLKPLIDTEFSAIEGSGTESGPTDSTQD
Sequence of heteromeric CNGA1/CNGB1 channels (Q28181 whole entry, chain 2 of 2, further chain): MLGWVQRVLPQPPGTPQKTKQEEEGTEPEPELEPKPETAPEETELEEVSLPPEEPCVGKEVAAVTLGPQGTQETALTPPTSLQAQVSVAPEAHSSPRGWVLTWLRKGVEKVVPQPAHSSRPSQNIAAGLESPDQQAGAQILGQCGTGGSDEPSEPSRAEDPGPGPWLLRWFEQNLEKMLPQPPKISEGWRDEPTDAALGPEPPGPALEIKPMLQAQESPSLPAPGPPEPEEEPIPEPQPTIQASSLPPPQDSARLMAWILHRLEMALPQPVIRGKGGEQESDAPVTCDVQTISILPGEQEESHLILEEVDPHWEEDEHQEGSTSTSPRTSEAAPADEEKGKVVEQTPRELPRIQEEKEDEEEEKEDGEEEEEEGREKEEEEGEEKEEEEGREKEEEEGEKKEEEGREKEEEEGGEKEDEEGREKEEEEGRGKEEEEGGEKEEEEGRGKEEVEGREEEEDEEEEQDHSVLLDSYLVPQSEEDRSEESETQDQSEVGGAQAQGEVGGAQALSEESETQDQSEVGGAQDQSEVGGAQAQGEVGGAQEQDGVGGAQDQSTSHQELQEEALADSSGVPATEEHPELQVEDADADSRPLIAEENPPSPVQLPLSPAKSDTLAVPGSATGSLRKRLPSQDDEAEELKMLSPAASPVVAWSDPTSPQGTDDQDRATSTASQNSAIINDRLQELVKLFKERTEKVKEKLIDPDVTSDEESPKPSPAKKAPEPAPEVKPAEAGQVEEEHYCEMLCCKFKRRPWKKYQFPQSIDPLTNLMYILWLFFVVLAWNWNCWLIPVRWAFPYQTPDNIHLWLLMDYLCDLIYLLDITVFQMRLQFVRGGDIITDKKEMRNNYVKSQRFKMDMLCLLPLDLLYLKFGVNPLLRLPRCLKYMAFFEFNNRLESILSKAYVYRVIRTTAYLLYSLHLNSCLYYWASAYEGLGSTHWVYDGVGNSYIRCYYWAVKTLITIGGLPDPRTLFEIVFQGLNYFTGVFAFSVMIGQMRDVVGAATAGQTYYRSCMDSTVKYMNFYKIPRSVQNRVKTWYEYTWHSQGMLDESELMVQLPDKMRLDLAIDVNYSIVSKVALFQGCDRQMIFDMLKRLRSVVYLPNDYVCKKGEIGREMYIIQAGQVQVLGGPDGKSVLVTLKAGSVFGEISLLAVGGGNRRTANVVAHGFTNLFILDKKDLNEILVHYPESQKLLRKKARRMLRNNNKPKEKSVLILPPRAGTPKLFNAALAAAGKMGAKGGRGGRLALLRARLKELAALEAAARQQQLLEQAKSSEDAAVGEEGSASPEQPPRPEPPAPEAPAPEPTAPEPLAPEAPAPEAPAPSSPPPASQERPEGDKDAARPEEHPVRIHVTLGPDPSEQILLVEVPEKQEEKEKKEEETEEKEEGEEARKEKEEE
Sequence of CNGA1-eYFP (Q00194 whole entry K2E): as the sequence (Q00194 whole entry K2E, chain 1 of 2) above
Sequence of eCFPΔCaM-CNGB1 (Q28181 whole entry, stated change not applied, the tested form may be a part): as the sequence (Q28181 whole entry, chain 2 of 2, further chain) above
Sequence of eCFP-CNGB1 (UniProt Q28181) (Q28181 whole entry): as the sequence (Q28181 whole entry, chain 2 of 2, further chain) above
Sequence of eCFP-CNGB1 (from UniProt Q28181 677-1394) (domain or fragment) (Q28181 whole entry, the tested form may be a part): as the sequence (Q28181 whole entry, chain 2 of 2, further chain) above

In assay [1], “CaM conjugated to the fluorescent dye Alexa-488 (from UniProt P62157 1-149) (natural protein)” registered a time constant of fluorescence decrease (washout in Ca2+-free solution) of 51 s and a time constant of fluorescence increase (250 nM CaM-488) of 18.5 s. In the assay with eCFP-CNGB1, this substance registered a time constant of eCFP quenching (250 nM CaM-488) of 24.6 s. For the substance “eCFP-CNGB1 (from UniProt Q28181 677-1394) (domain or fragment)”, the F530/F480 ratio (initial, before Ca2+/CaM) in the assay with CNGA1-eYFP is 1.8. In turn, “eCFPΔCaM-CNGB1 (from UniProt Q28181 702-1394) (domain or fragment)” gave a reduction in FRET against eCFP-CNGB1 with CNGA1-eYFP of 29%.

The record behind these values is PMC2233886.
